{"source": "patent US10961546B2", "about": "“Glyphosate-resistant gene screening method, EPSPS mutant gene and deficient strain and use” (GEVOTO LLC, priority 2016, dated 2021)", "molecules": {"B1": {"name": "GmE: wild type Glycine max EPSPS gene, SEQ ID NO.5; control group (nucleic acid)", "DNA": "ATGGATAGCGTGGCGGCGGCGGAAAAACCGAGCACCAGCCCGGAAATTGTGCTGGAACCGATTAAAGATTTTAGCGGCACCATTACCCTGCCGGGCAGCAAAAGCCTGAGCAACCGCATTCTGCTGCTGGCGGCGCTGAGCGAAGGCACCACCGTGGTGGATAACCTGCTGTATAGCGAAGATATTCATTATATGCTGGGCGCGCTGCGCACCCTGGGCCTGCGCGTGGAAGATGATAAAACCACCAAACAGGCGATTGTGGAAGGCTGCGGCGGCCTGTTTCCGACCAGCAAAGAAAGCAAAGATGAAATTAACCTGTTTCTGGGCAACGCGGCGACCGCGATGCGCAGCCTGACCGCGGCGGTGGTGGCGGCGGGCGGCAACGCGAGCTATGTGCTGGATGGCGTGCCGCGCATGCGCGAACGCCCGATTGGCGATCTGGTGGCGGGCCTGAAACAGCTGGGCGCGGATGTGGATTGCTTTCTGGGCACCAACTGCCCGCCGGTGCGCGTGAACGGCAAAGGCGGCCTGCCGGGCGGCAAAGTGAAACTGAGCGGCAGCGTGAGCAGCCAGTATCTGACCGCGCTGCTGATGGCGGCGCCGCTGGCGCTGGGCGATGTGGAAATTGAAATTGTGGATAAACTGATTAGCGTGCCGTATGTGGAAATGACCCTGAAACTGATGGAACGCTTTGGCGTGAGCGTGGAACATAGCGGCAACTGGGATCGCTTTCTGGTGCATGGCGGCCAGAAATATAAAAGCCCGGGCAACGCGTTTGTGGAAGGCGATGCGAGCAGCGCGAGCTATCTGCTGGCGGGCGCGGCGATTACCGGCGGCACCATTACCGTGAACGGCTGCGGCACCAGCAGCCTGCAGGGCGATGTGAAATTTGCGGAAGTGCTGGAAAAAATGGGCGCGAAAGTGACCTGGAGCGAAAACAGCGTGACCGTGAGCGGCCCGCCGCGCGATTTTAGCGGCCGCAAAGTGCTGCGCGGCATTGATGTGAACATGAACAAAATGCCGGATGTGGCGATGACCCTGGCGGTGGTGGCGCTGTTTGCGAACGGCCCGACCGCGATTCGCGATGTGGCGAGCTGGCGCGTGAAAGAAACCGAACGCATGATTGCGATTTGCACCGAACTGCGCAAACTGGGCGCGACCGTGGAAGAAGGCCCGGATTATTGCGTGATTACCCCGCCGGAAAAACTGAACGTGACCGCGATTGATACCTATGATGATCATCGCATGGCGATGGCGTTTAGCCTGGCGGCGTGCGGCGATGTGCCGGTGACCATTAAAGATCCGGGCTGCACCCGCAAAACCTTTCCGGATTATTTTGAAGTGCTGGAACGCCTGACCAAACATTAA", "modifications": "Glycine max", "notes": "control group"}, "B2": {"name": "OsE: wild type Oryza sativa EPSPS gene, SEQ ID NO.1; control group (nucleic acid, listed as Oryza sativa)", "DNA": "ATGGCGTCCAACGCCGCGGCTGCGGCGGCGAAGGCGGAGGAGATCGTGCTCCAGCCCATCAGGGAGATCTCCGGGGCGGTTCAGCTGCCAGGGTCCAAGTCGCTCTCCAACAGGATCCTCCTCCTCTCCGCCCTCTCCGAGGGCACAACAGTGGTGGACAACTTGCTGAACAGTGAGGATGTTCACTACATGCTTGAGGCCCTGAAAGCCCTCGGGCTCTCTGTGGAAGCAGATAAAGTTGCAAAAAGAGCTGTAGTCGTTGGCTGTGGTGGCAAGTTTCCTGTTGAGAAGGATGCGAAAGAGGAAGTGCAACTCTTCTTGGGGAACGCTGCGACTGCAATGCGACTCTTGACAGCAGCCGTGACTGCTGCTGGTGGAAATGCAACTTATGTGCTTGATGGAGTGCCACGAATGAGGGAGAGACCGATTGGTGACTTGGTTGTCGGGTTGAAACAACTTGGTGCGGATGTCGACTGTTTCCTTGGCACTGAATGCCCACCTGTTCGTGTCAAGGGAATTGGAGGACTTCCTGGTGGCAAGGTTAAGCTCTCTGGTTCCATCAGCAGTCAGTACTTGAGTGCCTTGCTGATGGCTGCTCCTTTGGCCCTTGGGGATGTGGAGATCGAAATCATTGACAAACTAATCTCCATTCCTTACGTTGAAATGACATTGAGATTGATGGAGCGTTTTGGTGTGAAGGCAGAGCATTCTGATAGTTGGGACAGATTCTATATTAAGGGAGGGCAGAAGTACAAATCTCCTGGAAATGCCTATGTTGAAGGTGATGCCTCAAGCGCGAGCTATTTCTTGGCTGGTGCTGCAATCACTGGAGGCACTGTGACAGTTCAAGGTTGTGGTACGACCAGTTTGCAGGGTGATGTCAAATTTGCTGAGGTACTTGAGATGATGGGAGCAAAGGTTACATGGACTGACACCAGTGTAACCGTAACTGGTCCACCACGTGAGCCTTATGGGAAGAAACACCTGAAAGCTGTTGATGTCAACATGAACAAAATGCCTGATGTTGCCATGACCCTTGCCGTTGTTGCACTCTTCGCTGATGGTCCAACTGCTATCAGAGATGTGGCTTCCTGGAGAGTAAAGGAAACCGAAAGGATGGTTGCAATTCGGACCGAGCTAACAAAGCTGGGAGCATCGGTTGAAGAAGGTCCTGACTACTGCATCATCACCCCACCGGAGAAGCTGAACATCACGGCAATCGACACCTACGATGATCACAGGATGGCCATGGCCTTCTCCCTCGCTGCCTGCGCCGACGTGCCCGTGACGATCAGGGACCCTGGTTGCACCCGCAAGACCTTCCCCAACTACTTCGACGTTCTAAGCACTTTCGTCAGGAACTGA"}}, "key": {"[1]": {"tested_on": "E. coli (EPSPS gene-and-C-P lyase genes-deleted strain)", "test": "glyphosate resistance testing of Glycine max EPSPS mutant gene: growth of transformed E. coli on culture media containing glyphosate", "assay_type": "cell-based", "set-up": "key: saturation index=0, no growth; saturation index=1, minor growth; saturation index=2, growth to half-saturation; saturation index=3, vigorous growth, but still not saturated; saturation index=4, rapid growth, meaning the strains have reached the maximum (saturation) concentration or the growth has reached the limit", "settings": "E. coli transformed with the gene", "description": "(§1) For glyphosate resistance testing of Oryza sativa EPSPS mutant gene, E. coli (EPSPS gene-and-C-P lyase genes-deleted strain) respectively transformed with OsEM gene (experimental group) and OsE gene (control group) were inoculated to culture media containing 0 mM, 1 mM, 5 mM, 10 mM, 20 mM, 50 mM and 100 mM glyphosate to see the growth of E. coli (indicated by growth saturation index: saturation index=0, no growth; saturation index=1, minor growth; saturation index=2, growth to half-saturation; saturation index=3, vigorous growth, but still not saturated; saturation index=4, rapid growth, meaning the strains have reached the maximum (saturation) concentration or the growth has reached the limit).\nFor glyphosate resistance testing of Glycine max EPSPS mutant gene, E. coli (EPSPS gene-and-C-P lyase genes-deleted strain) respectively transformed with GmEM gene (experimental group) and GmE gene (control group) were inoculated to culture media containing 0 mM, 1 mM, 5 mM, 10 mM, 20 mM, 50 mM and 100 mM glyphosate to see the growth of E. coli."}, "[2]": {"tested_on": "E. coli (EPSPS gene-and-C-P lyase genes-deleted strain)", "test": "glyphosate resistance testing of Oryza sativa EPSPS mutant gene: growth of transformed E. coli on culture media containing glyphosate", "assay_type": "cell-based", "set-up": "key: saturation index=0, no growth; saturation index=1, minor growth; saturation index=2, growth to half-saturation; saturation index=3, vigorous growth, but still not saturated; saturation index=4, rapid growth, meaning the strains have reached the maximum (saturation) concentration or the growth has reached the limit", "settings": "E. coli transformed with the gene", "description": "A plurality of the above obtained mutant strains were inoculated on a plurality of screening culture media with different concentrations of glyphosate, respectively (the screening culture media contained different concentrations of glyphosate, and the glyphosate concentrations contained in them were 10 mM, 20 mM, 50 mM, etc., respectively, having a gradient in glyphosate concentrations, and of course, the glyphosate concentration may be set as required), and cultured at 37° C. overnight. The screening culture media were obtained by using M9 as a basal medium, to which certain concentrations of antibiotics, including Specs (Spectinomycin), Gen (Gentamycin) and Amp (Ampicillin), and different concentrations of glyphosate were added. M9 culture medium consists of the following ingredients: 13˜14 g/L of Na2HPO4, 5.7˜6.3 g/L of KH2PO4, 0.9˜1.1 g/L of NaCl, 1.8˜2.2 g/L of NH4Cl, 37˜43 g/L of glucose, 48˜52 g/L of MgSO4.7H2O and 21˜23 g/L of CaCl2.\nas §1"}, "[3]": {"settings": "culture medium with 0 mM glyphosate"}, "[4]": {"settings": "culture medium with 1 mM glyphosate"}, "[5]": {"settings": "culture medium with 5 mM glyphosate"}, "[6]": {"settings": "culture medium with 10 mM glyphosate"}, "[7]": {"settings": "culture medium with 20 mM glyphosate"}, "[8]": {"settings": "culture medium with 50 mM glyphosate"}, "[9]": {"settings": "culture medium with 100 mM glyphosate"}}, "note": "“And” between values parts separate entries of the source, which are not always exact repeats. Equal values may be shown once."}
{"molecule": "B1", "values": [{"measurement": "Growth saturation index", "setting": "[1]; [3]", "value": 4}, {"measurement": "Growth saturation index", "setting": "[1]; [4]", "value": "cannot grow normally and 0"}, {"measurement": "Growth saturation index", "setting": "[1]; [5]", "value": "cannot grow normally and 0"}, {"measurement": "Growth saturation index", "setting": "[1]; [6]", "value": "cannot grow normally and 0"}, {"measurement": "Growth saturation index", "setting": "[1]; [7]", "value": "cannot grow normally and 0"}, {"measurement": "Growth saturation index", "setting": "[1]; [8]", "value": "cannot grow normally and 0"}, {"measurement": "Growth saturation index", "setting": "[1]; [9]", "value": 0}]}
{"molecule": "B2", "values": [{"measurement": "Growth saturation index", "setting": "[2]; [3]", "value": 4}, {"measurement": "Growth saturation index", "setting": "[2]; [4]", "value": 0}, {"measurement": "Growth saturation index", "setting": "[2]; [5]", "value": 0}, {"measurement": "Growth saturation index", "setting": "[2]; [6]", "value": 0}, {"measurement": "Growth saturation index", "setting": "[2]; [7]", "value": 0}, {"measurement": "Growth saturation index", "setting": "[2]; [8]", "value": 0}, {"measurement": "Growth saturation index", "setting": "[2]; [9]", "value": 0}]}
